# Laboratory results as given in the nanobody polyreactivity screen of Harvey et al. (2022).
# Test: yeast display, Sf9 membrane polyspecificity reagent, FACS + sequencing; frameworks hold sequencing errors
# Outline: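 A nanobody's polyreactivity label depends on the gate it was sorted from. Yeast display cells were stained with 10% biotinylated, detergent-solubilized Sf9 membrane reagent for 1 hour at 4 °C, enriched on streptavidin microbeads and sorted by FACS. The low and high (top ~1%) gates were set on anti-HA fluorescence for expression and streptavidin fluorescence for reagent binding.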
row,Sequence,polyreactivity (PSR sort gate)
1,QVQLVESGGGLDQAGGSLRLSCAASGSTFNSYAMGWYRQAPGKERELVAAITSSVGSTYYADSVKGRFTISRDNAKNTVYLQMNSLKPEDTAVYYCAADYFSYWYFSGYDYWGQGTQVTVSS,low polyreactivity
2,QVQLVESGGGLVQAGGSLRLSCAASGSTFVRYAMGWYRQAPGKERELVAAIRGGGGTYYADSVKGRFTISRDNAKNTVYLQMNSLKPEDTAVYYCAADTYYYYWFAGYTEYDYWGQGTQVTVSS,low polyreactivity
3,QVQLVESGGGLVQAGGSLRLSCAASGSISVRNVMGWYRQAPGKERELVATIRRPGGSTSYADSVKGRFTISRDNAKNTVYLQMNSLKPEDTAVYYCAAVGYTTYRRYDYWGQGTQVTVSS,low polyreactivity
4,QVQLVESGGGLVQAGGSLRLSCAASGITYGYVMGLYRQAPGKERELVAAISYRGGSTYYADSVKGRFTISRDNAKNTVYLQMNSLKPEDTAVYYCATEASGKTYGYVAYDYWGQGTQVTVSS,high polyreactivity
5,QVQRVESGGGLVQAGGSLRLSCAASGRIFGGYAMGWYRQAPGKERELVAGITIGGRTNYADSVKGRFTISRDNAKNTVYLQMNSLKPEDTAVYYCNTDLTGLDAEYDYWGQGTQLTVSS,low polyreactivity
6,QVQLVESGGGLVQAGGSLRLCCAASGFILLDYAKGWYRQAPGNERELVAAISWSGARTYYADSVKRRFTISRDNAKNTVYLQMNSLKPEDTAVYYCATRYRWTPYDYWGQGTQVTVSS,low polyreactivity
7,QVQLVESGGGLVQAGGSLRLSCAASGFIFGYNAMGWYRQAPGKERELVASITINDGSTYYADSVKGRFTISRDNAKNTVYLQMNCLKPEDTAVYYCAAGGWYSLDILPYRYDYWGQGTQVTVSS,low polyreactivity
8,QVQLVESGGGLVQAGGSLRLSCAASGRTFSTYVMGWYRQAPGKEREFVAAISTGGGSTYYADSVKGRFTISRDNAKNTVYLQMNSLKPEDTAVYYCAARLKWGWPTYDYWGQGTQVTVSS,high polyreactivity
9,QVQLVESGGGLVQAGGSLRLSCAASGSIFGSNAMGWYRQAPGKERELVAAISYRGGSTYYADSVKGRFTISRDNAKNTVYLQMNSLKPEDTAFYYCAKVSSYKPYDYWGLGTQVTVSS,low polyreactivity
10,QVQLVESGGGLVQAGGSLRLSCAASGRIFQKNAMGWNIQAPGKERELVAVISWSDGSTNYADSVKGRFTISRDNAKNTVYLQMNSLKPEDTAVYYCNAAPLEGTLYDSWGQGTQVTVSS,low polyreactivity
11,QVQLVESGGGLVQAGGSLLLSCAASGFIFAGYAMGWYRQAPGKERELVAPISKRGGTTYYADSVKGRFTISRDNAKNTVYLQMNSLKPEDTAVYYCNAKRTYRVVWASSYEYDYWGQGTQVTVSS,high polyreactivity
12,QVQLVESGGGLVQAGGSLRLSCAASGSTFVYYAMGWYRQAPGKERELVATITSGGSTKYADSVKGRFTISRDNAKNTVYLQMNSLKPEDTAVYYCAAAYRVRGRTYDSWGQGTQVTVSS,high polyreactivity
13,QVQLVESGGGLVQAGGSLRLSCAASGRTFVWYVMGWYRQAPGKERELVAAISLRGGTTYYADSVKGRFTISRDNAKNTVYLQMNSLKPEDTAVYYCAIAGIRHVTSKFKGYHFGYWGQGTQVTVSS,low polyreactivity
14,QVQLVESGGGLVQAGGSHRLSCAASGRTLGGYAMGWSRQAPGKERELVAAISYSGGSTYYADSVKGRFTISRDNAKNTVYLQMNSLKAEFTAVYYCARDYSWYYYGSQLFAHDYWGQGTQVTVSS,low polyreactivity
15,QVQIVESGGGLVQARGSLRLSCAAYGRIIYRYAMGWYRQAPGKERELVAAISASGRTYYADSVKGRFTISRDNAKNTVYLQMNSLKPADTAVYYCAKVAAGSLGSWGQGTQVTVSS,high polyreactivity
16,QVQLVESGGGLVQAGGSLRLSCAASGYIFGRYAMGWYRQAPGKERELVAAISSTGDSTYYADSVKGRFTISRDNAKNTVYLQMNSLKPEDTAVYYCNAVVRRYSYGRYYYWGQGTQVTVSS,high polyreactivity
17,QDQLVESVGGLVQAGGSLRLSCAASGTISYAGPMGWYRKAPGKEREFVAGIGVCSNTNYADSVKGRYTIIRDNAKNTVYLQMNSLIPEDTAVYYCAVGGYAPLGRPYWGQGTQVTVSS,low polyreactivity
18,QVQLVESGGGLVQAGGSLRLSCAASGRIFFVYAMGWYRQAPGKERELVAGIRSSGGSTYYADSVKGRFTISRDNAKKTVYLQMNSLKPEDTAVYYCAARRVGYPSPYSTYGMYYWGQGTQVTVSS,high polyreactivity
19,QVQLVESGGGLVQAGGSLRLSCADSGSTFSPDAMGWYIQAPGKERALVAAIRYSGTSTYYADSVKGRFTISRDNAKKTVYLQMNSLKPEDTAVYYCNTVFKYQGVRPYGYWGQGTQVTVSS,high polyreactivity
20,QVQLQESGGGLVQAGGSLRQSCAASGSIFKVVDMGLYRQAPAKEREFVATIGEGGNTYYADSVKGRFTISRDNAKNTVYLQMNSLKPEDTAVYFYAVVLGSSYSYTYWGQGTQVTVSS,low polyreactivity
21,QVQLVESGGGLVQAGGSLRLSCAATGFIFPLYAMGWYRQAPGKQSELVAAITWRGDTTSYADSVKGRFTISRDNAKNTVYLQMNSLKPVDPAVYYCAADSYRYRPGYGPVLYDYWGQGTQVTVSS,high polyreactivity
22,QVQLVESGGGLVQAGGSLRLICAASGSIFITYDMGWYRQAPGKERELVATISTTGGTTYYADSVKGRFTISRDNAKNTVYLQMNSLKPEDTAVYYCATAGPPRGYYAPITLDDYWGQGTQVTVSS,low polyreactivity

row,Sequence,polyreactivity (PSR sort gate)
1,QVQLVESGGGLVQAGGSLRLSCAASGRTSWYTMGWYRQAPGKERELVAAISGSGGITYYADSVKGRFTISRDNAKNTVYLQMNSLKPEDTAVYYCNALRPRSLTEMYYWGQGTQVTVSP,high polyreactivity
2,QVQLVESGGGLVQAGGSLRLSCAASGITFIVNAMGWYRQAPGKERELVARITTSGGSTSYADSVKGRFTISRDNAKYTVYLQMYSLKPEDSAVYYCAADRGGYYSEYDYWGQGTQVTVSS,low polyreactivity
3,QVQLVESGGVLVQAGGSLRLSCAASGSTLSPYVMGWYRQAPGKERELVATISRSGGRTYYADSVKGRFTISRDNAKNTVYLQMNSLKPEETAVYYCAARTYYWGALIVSYDYWGQGTQVTVSS,low polyreactivity
4,QVQLVESGGGLVQAGGSLRLSCAASGITLFYYAMGWYRQAPGKERELVAVISASGGSTYYADSVKGRFTISRDNAKNTVYIQMNSLKPEDTAVYYCAAVAYWRSSSWYYYWGQGTQVTVSS,high polyreactivity
5,QVQLVESGGGLVQAGGSLRLSCAASGNTFKYYVMGWYRQAPGKERELVAAITRGGSTYYADSVKGRFTISRDNAKNTVYLQMNSLKPEDTAVYYCATDVKIPNFDYWGQGTQVTVSS,high polyreactivity
6,QVQLVESGGGLVQAGGSLRLSCAASGRTFYGYAMGWYRQAPGKERELVASISYSGGNTYYADSVKGRFTISRDIAKNTVYLQMNSLKPEDTAVYYCAAEVVFFGWHYDYWGQGTQVTVSS,high polyreactivity
7,QVQLVESGGGLVQAGGSLRLSCAPSGSTFRTYAMGWYRQAPGKERELVAAISSGDNTNYADSVKGRFTISRDNAKNTAYLQMNSLKPEDTAVYYCASRAYRWRSFYTMYYCGQGTQVTVSS,high polyreactivity
8,QVQLVESGGGLVQAGGSLSLSCAASGSNFSENTMGWYRQAPGKKRELVADITSGGSTNYADSVKGRFTISRDNAKNTVYLQMNSLKPEDTAVYYCAADYHGEYDYWGQGTLVTVSS,low polyreactivity
9,QVQLVESGGGLVQAGGSLRLSCAASGLTLKRYAMGWYRQAPGKERELDAAISKSGGSTYYADSVKGRFTSSRDNAKNTVYLQMNSLKPEDTPVYYCAADSYNLWDDYWGQGTQVTVSS,low polyreactivity
10,QVQLVESGGGLVQAGGSLSLSCSASGSIFAGYARGWYRQAPGKERELVAAISVSGGGTYYADSVKGRFTISRDNAKNTVYLQMNSLKPEDTAVYYCAATGSSRYGRNYYSWGQGTQVTVSS,high polyreactivity
11,QVQLVDSGGGLVQAGGSLRLSCAASGFIFVDYVMGWSRQAPGKERELVAAITRGGSTNYADSVKGRFTISRDNAKNTVYLQMNSLKPEDTAVYYCAVRWYRKYNYWGQGTQVTVSS,high polyreactivity
12,QVQLEESWGGLVQAGGSLRLSCAASGSIYWEYAMGWYTPAPGKEREFVATISARGGRTYYADSVKGRFTISRDNAKNTVYLQMNSLKPEDTAVYYCANVGVFHLRDNYRFDFWGQGTQVTVSS,low polyreactivity
13,QVQLVESGGGLVQAGGSLRLSCAASGRILTFNTMGWYRQAPGKERELVAAIRSGGSTYYADSVKGRFTISRDNAKNTVFLQMNSLKPEDTAVYYCRGMGYWGQGTQVTVSS,high polyreactivity
14,QVQLVESGGGLDQEGVRLRLSCAASGRTFRIYAMGLYRQAPGNERELVAAISSDASTSYADSVKGRFTISRDNPKNTVYFQMNSLKPEATAVYYSAADPGPYFDWGYDFWGQGTQVTVSS,low polyreactivity
15,QVQLVESGGGLVQAGGSLRLSCAASGSTFRWYAMGWYRQAPGTERELVAAISVSTGSTYYADSVKGRFTISRDNAKNTVYVQMNTLKPEDTGVYYCNKVYGWRQFDYWGQGTQVTVSS,high polyreactivity
16,QVQLVESGGGLVQAGGSLRLSCAASGTYRLYAMGWYRQAPGKEREFVAAITYGGGGTYYADSVKGRFTISRDNAKNTVYLQMNSLKPEDTAVYYCAADLYLTDTDVEYYYWGQGTKVTVSS,low polyreactivity
17,QVQLVESGGGLVQAGGSLRLSCAASGSSKLRLWDGIDRRLGKKGSWLPLFVLVVLRNYADSVKGRFTISRDNAKNTVYLQMNSLKPEDTAVYYCAATPIGSGGWGDYWGQGTQVTVSS,low polyreactivity
18,QVQLVESGGGLVQAGGSLRLSCAASGSIISRNAMGWYRQAPGKERELVAAITSSGDSTYYADSVKGRFTISRDNAKNTVYLQMNSLKPEDTAVYYCNARAYRRKRYDYWGQGTQVTVSS,high polyreactivity
19,QVQLVESGGGLVQAGGSLRLSCAASGFIFVLNVMGWYRQAPGKEMELVAAITWSGTSTYYADSVKGRFTISRDNAKNTVYLQMNSLKPEDTAVYYCNADWWSDGYDYWGQGSQVTVSS,low polyreactivity
20,QVQLVESGGGLVQAGGSLRLSCAASGSTFERYAMGWYRQAPGKKWSWLPYADSVKGRFTISRDNAKNTVYLQMNSLKPEDTAVYYCNAERDSPPLNLDRGWEYDYWGQGTQVTVSS,low polyreactivity
21,QVQLVESGGGLVQAGGSLRLRCAASGRIFGVYVMGWYRQAPGKESEFVAAISWSGSHTYYADSVKGRFTISRYNAKNTVYLQMNSLKPEDTAVYYCNADSYPDYTGPGLDWYDFWGQGTQVTVSS,low polyreactivity
